One may read the Kd as the equilibrium constant for the complex coming apart.

These results are taken from patent publication US20230340146A1 (US Dept. of Health and Human Services, published 2023).

One test addresses T1, human glypican-4 (GPC4) (human, UniProt O75487 19-529, limits assumed).
T1 construct: Named through 'human GPC1 through GPC6' in the methods; also called human GPC4; other human glypican members
T1 sequence (looked up): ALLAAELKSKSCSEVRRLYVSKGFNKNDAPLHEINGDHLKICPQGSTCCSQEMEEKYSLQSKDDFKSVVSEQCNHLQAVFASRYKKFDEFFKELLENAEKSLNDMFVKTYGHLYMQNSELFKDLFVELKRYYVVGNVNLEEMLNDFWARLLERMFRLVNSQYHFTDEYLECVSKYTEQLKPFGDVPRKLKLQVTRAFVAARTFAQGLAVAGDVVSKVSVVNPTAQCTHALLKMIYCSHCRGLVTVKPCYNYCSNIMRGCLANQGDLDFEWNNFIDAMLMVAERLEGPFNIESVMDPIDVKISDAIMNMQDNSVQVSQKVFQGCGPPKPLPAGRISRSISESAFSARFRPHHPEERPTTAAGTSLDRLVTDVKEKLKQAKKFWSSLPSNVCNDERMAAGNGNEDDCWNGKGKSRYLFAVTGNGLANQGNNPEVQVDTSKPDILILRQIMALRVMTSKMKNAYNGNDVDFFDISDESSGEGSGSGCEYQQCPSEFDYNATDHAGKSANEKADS
Description: ELISA, plate coated with human GPC4. How it is done: Mouse hybridoma supernatant containing 1 µg/ml of each mAb was incubated with plates coated with human GPC1 through GPC6 purchased from R&D Systems. Binding was detected with a goat anti-mouse IgG conjugated with horseradish peroxidase (HRP) (Jackson ImmunoResearch). […] Binding was detected with an anti-FLAG HRP-conjugated antibody (Sigma-Aldrich). […] Recombinant human GPC1-hFc protein at concentrations of 5 µg/ml and 1 µg/ml were then added to the plate.
A general note: In an ELISA, binding on a coated surface is turned into a signal by an enzyme label.

The next test concerns the target T2, His-tagged GPC1 protein (human, UniProt P35052 24-530, limits assumed).
T2 construct: Immobilised on a Ni-NTA biosensor for the Octet measurement of HM2; also called human GPC1; not shown: His tag
T2 sequence (looked up): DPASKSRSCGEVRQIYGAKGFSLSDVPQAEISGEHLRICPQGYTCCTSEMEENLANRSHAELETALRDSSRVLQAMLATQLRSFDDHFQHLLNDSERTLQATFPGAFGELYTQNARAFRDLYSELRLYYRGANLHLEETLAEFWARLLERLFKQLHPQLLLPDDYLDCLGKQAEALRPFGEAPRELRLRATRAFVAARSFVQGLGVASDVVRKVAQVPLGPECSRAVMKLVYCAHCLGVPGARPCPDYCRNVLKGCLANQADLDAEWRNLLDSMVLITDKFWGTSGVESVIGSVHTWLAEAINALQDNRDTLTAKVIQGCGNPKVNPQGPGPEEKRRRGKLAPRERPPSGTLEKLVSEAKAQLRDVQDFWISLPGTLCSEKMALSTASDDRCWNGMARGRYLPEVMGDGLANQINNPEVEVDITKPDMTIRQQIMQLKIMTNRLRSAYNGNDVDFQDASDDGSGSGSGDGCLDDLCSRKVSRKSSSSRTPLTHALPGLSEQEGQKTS
Description: Octet (BLI), His-tagged GPC1 on Ni-NTA biosensor, HM2 in solution. Here is the method:
Data analysis was performed using the FortéBio analysis software.
Background: BLI is a label-free optical method that tracks binding on a fibre tip over time.

A further test deals with T3, human glypican-3 (GPC3) (human, UniProt P51654 25-559, limits assumed).
T3 construct: Named through 'human GPC1 through GPC6' in the methods; also called human GPC3; other human glypican members
Put plainly: ELISA on plate-coated human glypicans, goat anti-mouse IgG-HRP.

Another test concerns the target T4, human glypican-2 (GPC2) (human, UniProt Q8N158 24-554, limits assumed).
T4 construct: Named through 'human GPC1 through GPC6' in the methods; also called human GPC2; other human glypican members
T4 sequence (looked up): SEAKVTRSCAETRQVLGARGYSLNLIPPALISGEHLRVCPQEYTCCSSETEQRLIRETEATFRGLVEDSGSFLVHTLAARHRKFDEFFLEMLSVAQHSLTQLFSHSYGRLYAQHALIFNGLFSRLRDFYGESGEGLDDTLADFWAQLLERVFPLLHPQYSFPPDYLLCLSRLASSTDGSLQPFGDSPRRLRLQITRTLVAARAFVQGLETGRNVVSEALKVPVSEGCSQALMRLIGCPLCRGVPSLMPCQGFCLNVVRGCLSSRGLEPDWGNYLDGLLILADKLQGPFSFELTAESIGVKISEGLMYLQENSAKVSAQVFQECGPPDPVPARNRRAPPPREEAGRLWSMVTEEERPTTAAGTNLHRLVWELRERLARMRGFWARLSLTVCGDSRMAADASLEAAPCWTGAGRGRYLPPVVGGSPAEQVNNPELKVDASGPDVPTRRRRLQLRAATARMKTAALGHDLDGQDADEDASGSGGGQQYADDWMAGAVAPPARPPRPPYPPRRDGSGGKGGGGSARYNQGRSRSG
The test is described as above.

The target of another test is T5, human glypican-6 (GPC6) (human, UniProt Q9Y625 24-529, limits assumed).
T5 construct: Named through 'human GPC1 through GPC6' in the methods; also called human GPC6; other human glypican members
T5 sequence (looked up): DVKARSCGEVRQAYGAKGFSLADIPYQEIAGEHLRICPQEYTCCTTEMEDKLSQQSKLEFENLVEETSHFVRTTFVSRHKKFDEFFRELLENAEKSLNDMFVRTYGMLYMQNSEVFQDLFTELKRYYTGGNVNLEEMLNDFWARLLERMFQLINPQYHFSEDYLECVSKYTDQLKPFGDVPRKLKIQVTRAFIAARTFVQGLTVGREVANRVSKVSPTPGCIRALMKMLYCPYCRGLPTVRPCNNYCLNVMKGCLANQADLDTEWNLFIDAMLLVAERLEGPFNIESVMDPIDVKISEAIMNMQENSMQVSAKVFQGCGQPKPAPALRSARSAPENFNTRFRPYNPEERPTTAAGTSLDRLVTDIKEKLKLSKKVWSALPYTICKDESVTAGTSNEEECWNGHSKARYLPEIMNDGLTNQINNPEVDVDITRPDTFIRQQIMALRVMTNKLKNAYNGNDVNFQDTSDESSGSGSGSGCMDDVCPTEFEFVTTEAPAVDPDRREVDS
Described as above.

Another test deals with T6, human glypican-5 (GPC5) (human, UniProt P78333 25-551, limits assumed).
T6 construct: Named through 'human GPC1 through GPC6' in the methods; also called human GPC5; other human glypican members
T6 sequence (looked up): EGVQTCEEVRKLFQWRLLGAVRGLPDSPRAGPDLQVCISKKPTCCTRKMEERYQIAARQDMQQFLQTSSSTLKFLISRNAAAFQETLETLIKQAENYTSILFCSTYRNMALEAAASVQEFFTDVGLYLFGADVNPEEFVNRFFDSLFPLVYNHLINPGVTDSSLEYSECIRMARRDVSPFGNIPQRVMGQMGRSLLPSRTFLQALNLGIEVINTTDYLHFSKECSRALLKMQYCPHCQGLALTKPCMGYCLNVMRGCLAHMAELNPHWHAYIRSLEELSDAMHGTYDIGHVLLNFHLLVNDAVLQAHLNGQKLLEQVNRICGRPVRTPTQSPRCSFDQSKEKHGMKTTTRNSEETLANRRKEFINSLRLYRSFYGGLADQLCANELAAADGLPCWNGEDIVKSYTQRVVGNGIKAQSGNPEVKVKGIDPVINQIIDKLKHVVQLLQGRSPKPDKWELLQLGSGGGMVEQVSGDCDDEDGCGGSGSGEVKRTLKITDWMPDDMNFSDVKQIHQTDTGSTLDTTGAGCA
The test is described as above.

The target of another test is T7, GPC1 peptide 53.
T7 peptide: DGCLDDLCSRKVSRKSSS
Put plainly: ELISA on peptides of the GPC1 peptide library.

The target of test [1] is T8, human GPC1 on cells (T3M4, KLM1, H8, 2B9) (human) (UniProt P35052).
T8 sequence (looked up): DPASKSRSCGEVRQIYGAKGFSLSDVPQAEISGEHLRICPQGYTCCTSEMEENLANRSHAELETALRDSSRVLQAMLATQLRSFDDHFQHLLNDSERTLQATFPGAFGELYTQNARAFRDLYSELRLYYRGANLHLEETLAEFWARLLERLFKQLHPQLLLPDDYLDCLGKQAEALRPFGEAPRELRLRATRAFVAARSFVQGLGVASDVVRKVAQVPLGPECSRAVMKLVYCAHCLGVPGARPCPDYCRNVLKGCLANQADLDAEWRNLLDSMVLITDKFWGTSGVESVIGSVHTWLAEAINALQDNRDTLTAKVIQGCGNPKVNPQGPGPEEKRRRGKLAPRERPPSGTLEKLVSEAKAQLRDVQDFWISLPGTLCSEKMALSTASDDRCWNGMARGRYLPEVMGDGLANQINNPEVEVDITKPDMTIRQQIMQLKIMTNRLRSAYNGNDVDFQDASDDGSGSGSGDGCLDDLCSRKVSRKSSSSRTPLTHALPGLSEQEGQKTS
Description: cell-based or functional assay.

B1: HM2 mouse monoclonal antibody (antibody, V domains shown)
VH: EVQLQQSGAELVRPGASVKLSCTASGFNIKDDYMHWVKQRPEQGLEWIGWIDPENGDTEYASKFQGKATITADTSSNTAYLQLSSLTSEDTAVYYCTRSSVGYWGQGTTLTVSS
VL: DVVMTQTPLSLPVSLGDQASISCRSSQSLVHSNGNTYLHWYLQKPGQSPKLLIYKVSNRFSGVPDRFSGSGSGTYFTLKISRVEAEDLGVYFCSQRTHVPYTFGGGTKLEIK
notes: Mouse monoclonal antibody (detected with goat anti-mouse IgG); also called HM2 mAb; HM2 clone
B1: the binding result in the test with human glypican-4 (GPC4) is given as “no binding (tested: 1 µg/ml)”; with human glypican-3 (GPC3), “no binding (tested: 1 µg/ml)”; with human glypican-2 (GPC2) it was “no binding (tested: 1 µg/ml)”; with human glypican-6 (GPC6) it was “no binding (tested: 1 µg/ml)”; with human glypican-5 (GPC5), “no binding (tested: 1 µg/ml)”; with GPC1 peptide 53, “binds”. In the test with His-tagged GPC1 protein, this molecule showed a Kd of 400 pM.

B2: D4-IgG4 hinge-CD28 TM CAR (protein)
chain: HMQVQLVESGGGLVQPGGSLRLSCVASGYSYSIGYMAWFRQAPGKERAWVASRYTGDGGAVFDDAVKGRFTTSQESAGNTFDLQMDSLKPEDTAMYYCAAKGPGFGRWEYWGRGTQVTVSSTSESKYGPPCPPCPFWVLVVVGGVLACYSLLVTVAFIIFWVKRGRKKLLYIFKQPFMRPVQTTQEEDGCSCRFPEEEEGGCELRVKFSRSADAPAYQQGQNQLYNELNLGRREEYDVLDKRRGRDPEMGGKPRRKNPQEGLYNELQKDKMAEAYSEIGMKGERRRGKGHDGLYQGLSTATKDTYDALHMQALPPR
On to B2, for which, in test [1], the cytolytic activity against T3M4 cells, difference to D4-IgG4 hinge-CD8 TM CAR T cells was found to be 10% and the killing ability at high E:T ratio is 91.6%.
